Entries after “also recorded” stand apart in the source; their conditions may differ.
B1: Beta-klotho (receptor, mouse, UniProt Q99N32 1-1043, looked up)
chain: MKTGCAAGSPGNEWIFFSSDERNTRSRKTMSNRALQRSAVLSAFVLLRAVTGFSGDGKAIWDKKQYVSPVNPSQLFLYDTFPKNFSWGVGTGAFQVEGSWKTDGRGPSIWDRYVYSHLRGVNGTDRSTDSYIFLEKDLLALDFLGVSFYQFSISWPRLFPNGTVAAVNAQGLRYYRALLDSLVLRNIEPIVTLYHWDLPLTLQEEYGGWKNATMIDLFNDYATYCFQTFGDRVKYWITIHNPYLVAWHGFGTGMHAPGEKGNLTAVYTVGHNLIKAHSKVWHNYDKNFRPHQKGWLSITLGSHWIEPNRTDNMEDVINCQHSMSSVLGWFANPIHGDGDYPEFMKTGAMIPEFSEAEKEEVRGTADFFAFSFGPNNFRPSNTVVKMGQNVSLNLRQVLNWIKLEYDDPQILISENGWFTDSYIKTEDTTAIYMMKNFLNQVLQAIKFDEIRVFGYTAWTLLDGFEWQDAYTTRRGLFYVDFNSEQKERKPKSSAHYYKQIIQDNGFPLKESTPDMKGRFPCDFSWGVTESVLKPEFTVSSPQFTDPHLYVWNVTGNRLLYRVEGVRLKTRPSQCTDYVSIKKRVEMLAKMKVTHYQFALDWTSILPTGNLSKVNRQVLRYYRCVVSEGLKLGVFPMVTLYHPTHSHLGLPLPLLSSGGWLNMNTAKAFQDYAELCFRELGDLVKLWITINEPNRLSDMYNRTSNDTYRAAHNLMIAHAQVWHLYDRQYRPVQHGAVSLSLHCDWAEPANPFVDSHWKAAERFLQFEIAWFADPLFKTGDYPSVMKEYIASKNQRGLSSSVLPRFTAKESRLVKGTVDFYALNHFTTRFVIHKQLNTNRSVADRDVQFLQDITRLSSPSRLAVTPWGVRKLLAWIRRNYRDRDIYITANGIDDLALEDDQIRKYYLEKYVQEALKAYLIDKVKIKGYYAFKLTEEKSKPRFGFFTSDFRAKSSVQFYSKLISSSGLPAENRSPACGQPAEDTDCTICSFLVEKKPLIFFGCCFISTLAVLLSITVFHHQKRRKFQKARNLQNIPLKKGHSRVFS
notes: Endogenous protein co-immunoprecipitated with hepatic FGFR4; also called βKlotho

What was measured:
FGFR4 Arg/Arg385 MEFs = assay: Apoptosis assay in MEFs (propidium-iodide, FACS) after chemotherapeutic drugs; format: cell-based, mouse
Description: Transmigration of MEFs were analysed in Boyden Chambers (Schubert & Weiss, Germany). 1.5×10^4 cells were seeded in starving medium containing 0% FCS. Migration was performed to DMEM containing 4% FCS for 16 h. Afterwards cells were stained with crystal violet and migrated cells were analysed macroscopically. To perform an apoptosis assay 1.5×10^4cells in DMEM containing 10% FCS were seeded in 12-well plates. After 24 h cells were treated with 0.5 μM doxorubicin for 48 h. Afterwards cells were stained with propidium-iodide and apoptotic cells were determined in a FACS (FACScalibus, BD) analysis as previously described (27).
To support these observations by molecular analytical methods we determined whether the FGFR4 Arg385 allele is hyperactivated in MEFs and thereby enhances cell transformation. The expression of the different FGFR4 isoforms is equal in MEFs as well as its basic state of phosphorylation (FIG. 9A). Next, we wanted to check if FGFR4 Arg385 facilitates cell survival or influences physiological processes of MEFs. Therefore we analysed the number of population doublings until the cells enter senescence in vitro and additionally stained MEFs, subcultured for 30 days, for […] to visualize senescent cells. However, we found no obvious differences between the different FGFR4 alleles (FIG. 9B). […] Further we wanted to investigate the influence of the FGFR4 Arg385 allele on physiological processes. As a motility enhancing effect of is the FGFR4 Arg388 allele had already been shown by Bange and colleagues with a human mammary carcinoma cell line, we wanted to confirm this observation in MEFs, but as shown in FIG. 9C no difference observed when Gly/Gly—were compared to Arg/Arg-MEFs. Contrarily, Arg-carrying MEFs seemed to strongly support cell survival in response to DNA-damaging agents. […] Additionally, we investigated the anti-apoptotic impact of the FGFR4 Arg385 after treatment with other chemotherapeutic drugs.

[1] = molecular target: human FGFR4 Arg388 (pLXSN-FGFR4 Arg388, overexpressed in MDA-MB-231 cells) (human) (UniProt P22455); assay: SILAC LC-MS/MS of FGFR4 immunoprecipitates, MDA-MB-231 cells overexpressing FGFR4 Arg388, normalized to empty pLXSN control cells
[2] = molecular target: human FGFR4 Arg388 (pLXSN-FGFR4 Arg388, overexpressed in MDA-MB-231 cells) (human) (UniProt P22455); assay: SILAC LC-MS/MS of FGFR4 immunoprecipitates, MDA-MB-231 cells; FGFR4 Arg388 against the reference FGFR4 Gly388
[3] = molecular target: human FGFR4 Gly388 (pLXSN-FGFR4 Gly388, overexpressed in MDA-MB-231 cells) (human) (UniProt P22455); assay: SILAC LC-MS/MS of FGFR4 immunoprecipitates, MDA-MB-231 cells overexpressing FGFR4 Gly388, normalized to empty pLXSN control cells
[4] = molecular target: T1, mouse wild-type FGFR4 (FGFR4 Gly385) (mouse, UniProt Q03142 17-799); assay: in vivo SILAC LC-MS/MS of FGFR4 immunoprecipitates from liver, labelled SILAC mouse against FGFR4 KO mouse
T1 construct: Endogenous hepatic FGFR4, immunoprecipitated from mouse liver lysates; also called hepatic FGFR4
Description: The hepatic FGFR4 of the unlabelled mouse was immunoprecipitated in the presence of the blocking peptides to detect unspecific binding partners. […] Unspecific interaction partners should display a 1:1 ratio compared to the unlabelled fraction incubated with the blocking peptides. […] For that reason, the investigation of hepatic FGFR4 interaction partners was done with the liver of FGFR4 KO mice (Yu et al., 2000).
Here, significance (PEP<0.03), amount of razor peptides (RPs, >1) and an upregulation of at least 3 fold in FGFR4 KO experiments identified potential FGFR4 interaction partner.

[5] = molecular target: T2, mouse FGFR4 Arg385 (knock-in allele) (mouse, UniProt Q03142 17-799); assay: in vivo SILAC LC-MS/MS of FGFR4 immunoprecipitates from liver; FGFR4 Arg385 against the reference FGFR4 Gly385
T2 construct: Endogenous FGFR4 of FGFR4 Arg385 KI mice (liver lysates) and of MEFs derived from them

[6] = molecular target: T1, mouse wild-type FGFR4 (FGFR4 Gly385); assay: in vivo SILAC LC-MS/MS of FGFR4 immunoprecipitates from liver, FGFR4 Gly385 mouse with the labelled SILAC mouse as internal standard
[7] = molecular target: T2, mouse FGFR4 Arg385 (knock-in allele); assay: in vivo SILAC LC-MS/MS of FGFR4 immunoprecipitates from liver, FGFR4 Arg385 mouse with the labelled SILAC mouse as internal standard
[8] = molecular target: Epidermal Growth Factor Receptor (EGFR, SEQ ID NO: 77) (Homo sapiens (Human)) (UniProt P00533); assay: cell-based or functional assay
[9] = test system: MDA-MB-231 cells overexpressing the FGFR4 Arg388 allele; format: cell-based, human; details: FGFR4 Arg388 expressing cells; Gefitinib 0.025-20 μM
[10] = test system: FGFR4 Arg388 expressing MDA-MB-231 cells; assay: Apoptosis in response to Gefitinib treatment; format: cell-based, human; details: Gefitinib 20 μM (p=0.012) and 10 μM (p=0.0022); 96 hours
Description: In a preferred embodiment, the proliferation rate is determined via a MTT proliferation assay, the apoptosis is determined via FACS analysis (Nicoletti et al., 1991, J. Immunol. Methods, 139: 271-279), and/or the migration is determined with a Boyden Chamber Assay, e.g. as described in the Examples below.
To further analyze the physiological connection between the EGFR and the FGFR4 we investigated the differences between the different FGFR4 alleles in MDA-MB-231 overexpressing cells upon exposure to Gefitinib. […]. Therefore, physiological processes that require the dimerization of the EGFR and the FGFR4 should lead to different results in the presence of Gefitinib compared to those obtained without an EGFR inhibitor. […]. Therefore, we investigated the impact of FGFR4 Arg388 overexpression on apoptosis in response to Gefitinib treatment in MDA-MB-231 cells. […]; 10 μM-p=0.0022). […].

[11] = test system: MDA-MB-231 cells expressing the empty pLXSN vector; assay: MTT-proliferation assay with Gefitinib; format: cell-based, human; details: up to 20 μM of Gefitinib
[12] = test system: MDA-MB-231 cells expressing FGFR4 Gly388; format: cell-based, human; details: up to 20 μM of Gefitinib
[13] = test system: MDA-MB-231 cells expressing the FGFR4 Arg388 allele; format: cell-based, human; details: FIG. 20C

human FGFR4 Arg388 (pLXSN-FGFR4 Arg388, overexpressed in MDA-MB-231 cells) (human), sequence (P22455 22-802 G388R): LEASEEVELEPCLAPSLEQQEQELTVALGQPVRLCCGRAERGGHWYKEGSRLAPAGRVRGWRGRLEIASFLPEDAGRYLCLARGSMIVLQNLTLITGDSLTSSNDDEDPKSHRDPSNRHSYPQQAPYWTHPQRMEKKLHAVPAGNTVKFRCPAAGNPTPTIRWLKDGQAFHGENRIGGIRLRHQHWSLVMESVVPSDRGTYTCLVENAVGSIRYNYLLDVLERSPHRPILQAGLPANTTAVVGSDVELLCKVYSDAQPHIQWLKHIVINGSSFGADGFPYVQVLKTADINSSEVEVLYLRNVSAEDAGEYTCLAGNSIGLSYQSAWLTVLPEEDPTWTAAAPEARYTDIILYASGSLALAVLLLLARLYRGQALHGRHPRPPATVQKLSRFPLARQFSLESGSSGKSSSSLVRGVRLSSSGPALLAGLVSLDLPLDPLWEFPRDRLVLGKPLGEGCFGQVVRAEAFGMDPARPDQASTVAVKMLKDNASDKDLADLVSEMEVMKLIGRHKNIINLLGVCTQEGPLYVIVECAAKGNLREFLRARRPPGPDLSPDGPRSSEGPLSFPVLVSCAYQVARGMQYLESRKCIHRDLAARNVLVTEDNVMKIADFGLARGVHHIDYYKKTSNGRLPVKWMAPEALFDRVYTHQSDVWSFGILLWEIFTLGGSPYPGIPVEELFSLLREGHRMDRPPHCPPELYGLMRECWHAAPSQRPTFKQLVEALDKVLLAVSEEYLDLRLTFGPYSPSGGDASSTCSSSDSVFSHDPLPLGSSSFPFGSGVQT
T1 sequence (Q03142 17-799 E673G limits assumed): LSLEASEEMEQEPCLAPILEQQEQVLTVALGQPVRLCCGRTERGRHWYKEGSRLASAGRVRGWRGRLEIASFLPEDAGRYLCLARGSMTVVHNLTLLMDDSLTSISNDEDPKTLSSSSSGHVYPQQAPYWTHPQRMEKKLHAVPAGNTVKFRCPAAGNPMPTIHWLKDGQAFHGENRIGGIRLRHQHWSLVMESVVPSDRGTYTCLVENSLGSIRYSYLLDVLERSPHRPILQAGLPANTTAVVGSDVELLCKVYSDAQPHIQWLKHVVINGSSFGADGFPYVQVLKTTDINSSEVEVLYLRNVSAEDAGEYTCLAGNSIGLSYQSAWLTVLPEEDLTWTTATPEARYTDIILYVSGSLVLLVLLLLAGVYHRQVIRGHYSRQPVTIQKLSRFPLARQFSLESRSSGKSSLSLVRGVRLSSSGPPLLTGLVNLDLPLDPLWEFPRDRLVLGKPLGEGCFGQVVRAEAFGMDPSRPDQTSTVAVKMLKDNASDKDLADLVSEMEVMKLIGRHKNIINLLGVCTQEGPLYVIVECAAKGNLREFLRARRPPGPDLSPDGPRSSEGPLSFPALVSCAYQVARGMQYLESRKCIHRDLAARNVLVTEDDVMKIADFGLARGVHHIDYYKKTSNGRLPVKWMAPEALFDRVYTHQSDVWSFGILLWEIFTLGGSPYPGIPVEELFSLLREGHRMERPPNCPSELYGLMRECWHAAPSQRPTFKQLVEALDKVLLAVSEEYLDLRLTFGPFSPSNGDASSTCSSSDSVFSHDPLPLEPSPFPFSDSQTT
T2 sequence (Q03142 17-799 G385R/E673G limits assumed): as the sequence (Q03142 17-799 E673G limits assumed) above, with G369R counted along it

| Molecule | ratio FGFR4 KO (n = 2) [4] [fold] | ratio FGFR4 Arg385/Gly385 [5] | ratio FGFR4 Gly385 (n = 1) [6] | ratio FGFR4 Arg385 (n = 2) [7] | also measured |
| --- | --- | --- | --- | --- | --- |
| CC(=O)O[C@H]1C(=O)[C@@]2(C)[C@H]([C@H](OC(=O)c3ccccc3)[C@]3(O)C[C@H](OC(=O)[C@H](O)[C@@H](NC(=O)c4ccccc4)c4ccccc4)C(C)=C1C3(C)C)[C@]1(OC(C)=O)CO[C@@H]1C[C@@H]2O [taxol] | – | – | – | – | apoptotic response in Gly/Gly385 MEFs compared to Arg/Arg385 MEFs (FGFR4 Arg/Arg385 MEFs; taxol, 48 hrs): no differences in apoptotic response |
| Ephrin type-A receptor 2 (from UniProt P29317 24-976) | – | – | – | – | ratio FGFR4Arg388 (n = 2) [1]: 8.74 fold; ratio FGFR4Arg388/Gly388 (n = 2) [2]: 1.05 fold; ratio FGFR4Gly388 (n = 2) [3]: 7.97 fold |
| Propanoyl-CoA C-acyltransferase (from UniProt P32020 1-547) (enzyme) | 7.8 | 18.6 | 0.2 | 3.6 | – |
| N.N.[Cl][Pt][Cl] [cisplatin] | – | – | – | – | apoptotic cells in Arg385 carrying MEFs compared to Gly/Gly385 MEFs (FGFR4 Arg/Arg385 MEFs; 3 μM cisplatin, 48 hrs, p=0.03): decreased apoptosis; also recorded: reduced number of apoptotic cells |
| human FGFR4 Gly388 (pLXSN-FGFR4 Gly388, overexpressed in MDA-MB-231 cells) (from UniProt P22455 22-802) (receptor) | – | – | – | – | IC50 of Gefitinib, MTT-proliferation assay of MDA-MB-231 cells expressing FGFR4 Gly388 (same value for empty pLXSN) [8]: 18.7 µM; inhibition of migration by Gefitinib (2.5 µM), Boyden Chamber Assay, 15 hours, against DMSO treated control cells [8]: 6.28% |
| Formimidoyltransferase-cyclodeaminase (from UniProt Q91XD4 1-541) (enzyme) | 3.5 | 2.7 | 0.4 | 1 | – |
| COc1cccc2c1C(=O)c1c(O)c3c(c(O)c1C2=O)C[C@@](O)(C(=O)CO)C[C@@H]3O[C@H]1C[C@H](N)[C@H](O)[C@H](C)O1 [doxorubicin] | – | – | – | – | apoptotic cells in Arg/Arg385 MEFs compared to Gly/Gly385 MEFs (FGFR4 Arg/Arg385 MEFs; 0.5 μM doxorubicin, 48 h, p=0.03): decreased percentage of apoptotic cells; also recorded: reduced number of apoptotic cells |
| Epidermal growth factor receptor (mouse liver, Egfr) (from UniProt Q01279 25-1210) | 5.8 | 3.8 | 0.3 | 1.3 | – |
| Protein tyrosine phosphatase, receptor type, F (from UniProt P10586 30-1907) | – | – | – | – | ratio FGFR4Arg388 (n = 2) [1]: 14.3 fold; ratio FGFR4Arg388/Gly388 (n = 2) [2]: 1.06 fold; ratio FGFR4Gly388 (n = 2) [3]: 16.6 fold |
| Hydroxyacid oxidase 1 (from UniProt Q9WU19 1-370) (enzyme) | 19.7 | 27.8 | 0.1 | 1.6 | – |
| COc1cc2ncnc(Nc3ccc(F)c(Cl)c3)c2cc1OCCCN1CCOCC1 [Gefitinib] | – | – | – | – | response in MTT-proliferation assay [9]: typical dose response curve; apoptotic response in FGFR4 Arg388 cells compared to FGFR4 Gly388 cells [10]: significantly increased apoptotic response; also recorded: significant increase in apoptosis; response in MTT-proliferation assay [11]: no response; response in MTT-proliferation assay [12]: no response; migration in FGFR4 Arg388 cells compared to FGFR4 Gly388 cells in response to Gefitinib [13]: decrease in migration |
| human FGFR4 Arg388 (pLXSN-FGFR4 Arg388, overexpressed in MDA-MB-231 cells) (from UniProt P22455 22-802) (receptor) | – | – | – | – | IC50 of Gefitinib, MTT-proliferation assay of MDA-MB-231 cells overexpressing the FGFR4 Arg388 allele [8]: 9.53 µM; inhibition of migration by Gefitinib (2.5 µM), Boyden Chamber Assay, 15 hours, against DMSO treated control cells [8]: 22.3% |
| Hydroxymethylglutaryl-CoA synthase (from UniProt P54869 38-508) (enzyme) | 3.3 | 1 | 1.8 | 1.8 | – |
| B1 | 28.2 | 0.7 ratio | 3.2 ratio | 2.4 ratio | – |
